Reference: patent US20190388506A1

Biological target: C3 convertase (C3bBb) (human) (UniProt P01024)
Assay: cell-based or functional assay

Sequence of C3 convertase (C3bBb) (human) (P01024 749-1663, chain 1 of 2): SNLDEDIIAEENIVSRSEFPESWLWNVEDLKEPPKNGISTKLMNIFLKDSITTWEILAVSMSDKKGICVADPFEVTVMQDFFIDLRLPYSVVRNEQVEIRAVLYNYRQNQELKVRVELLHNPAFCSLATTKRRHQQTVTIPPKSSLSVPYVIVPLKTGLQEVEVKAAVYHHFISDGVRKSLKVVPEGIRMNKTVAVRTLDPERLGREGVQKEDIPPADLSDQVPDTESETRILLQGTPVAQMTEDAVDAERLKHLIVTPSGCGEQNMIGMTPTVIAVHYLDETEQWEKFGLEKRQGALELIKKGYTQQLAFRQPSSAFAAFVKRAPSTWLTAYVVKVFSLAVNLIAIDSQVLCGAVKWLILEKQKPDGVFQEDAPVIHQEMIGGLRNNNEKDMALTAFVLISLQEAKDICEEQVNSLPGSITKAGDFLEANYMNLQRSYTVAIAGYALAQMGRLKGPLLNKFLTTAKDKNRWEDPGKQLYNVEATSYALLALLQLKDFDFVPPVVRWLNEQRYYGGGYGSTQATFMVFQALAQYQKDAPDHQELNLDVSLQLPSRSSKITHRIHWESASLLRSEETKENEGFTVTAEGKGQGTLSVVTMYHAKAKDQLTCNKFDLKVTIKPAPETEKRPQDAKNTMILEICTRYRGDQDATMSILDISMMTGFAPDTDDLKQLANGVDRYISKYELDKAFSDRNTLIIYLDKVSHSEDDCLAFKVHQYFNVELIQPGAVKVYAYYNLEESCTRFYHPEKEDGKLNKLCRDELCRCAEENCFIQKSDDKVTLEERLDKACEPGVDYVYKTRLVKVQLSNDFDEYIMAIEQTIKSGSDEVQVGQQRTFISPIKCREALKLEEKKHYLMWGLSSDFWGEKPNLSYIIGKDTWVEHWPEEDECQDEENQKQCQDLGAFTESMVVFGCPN
Sequence of C3 convertase (C3bBb) (human) (P00751 260-764, chain 2 of 2, further chain): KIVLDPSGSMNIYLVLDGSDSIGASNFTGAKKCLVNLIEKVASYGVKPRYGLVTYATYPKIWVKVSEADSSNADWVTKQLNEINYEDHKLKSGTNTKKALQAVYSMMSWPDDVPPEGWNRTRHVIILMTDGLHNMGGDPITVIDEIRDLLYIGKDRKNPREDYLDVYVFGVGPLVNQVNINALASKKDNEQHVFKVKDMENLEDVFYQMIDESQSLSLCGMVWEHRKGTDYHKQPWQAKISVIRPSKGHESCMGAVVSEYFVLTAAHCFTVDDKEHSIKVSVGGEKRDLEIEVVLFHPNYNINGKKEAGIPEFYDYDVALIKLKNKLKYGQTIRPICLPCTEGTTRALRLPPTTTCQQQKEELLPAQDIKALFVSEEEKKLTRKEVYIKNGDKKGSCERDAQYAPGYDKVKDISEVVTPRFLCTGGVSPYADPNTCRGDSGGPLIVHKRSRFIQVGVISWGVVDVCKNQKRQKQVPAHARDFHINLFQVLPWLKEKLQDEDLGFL

Which Anti-C3 convertase (EC50 µg/ml) does the source give for “FH fragment "SCR1-6" (SCR 1 to 6 of human factor H) (from UniProt P08603 19-388)” here?
Its Anti-C3 convertase (EC50 µg/ml) is 0.093 µg/mL.

Biological target: C3b (purified) (UniProt P01024)
Assay: cell-based or functional assay

Sequence of C3b (purified) (P01024 749-1663, chain 1 of 2): as the sequence (P01024 749-1663, chain 1 of 2) above
Sequence of C3b (purified) (P01024 23-667, chain 2 of 2): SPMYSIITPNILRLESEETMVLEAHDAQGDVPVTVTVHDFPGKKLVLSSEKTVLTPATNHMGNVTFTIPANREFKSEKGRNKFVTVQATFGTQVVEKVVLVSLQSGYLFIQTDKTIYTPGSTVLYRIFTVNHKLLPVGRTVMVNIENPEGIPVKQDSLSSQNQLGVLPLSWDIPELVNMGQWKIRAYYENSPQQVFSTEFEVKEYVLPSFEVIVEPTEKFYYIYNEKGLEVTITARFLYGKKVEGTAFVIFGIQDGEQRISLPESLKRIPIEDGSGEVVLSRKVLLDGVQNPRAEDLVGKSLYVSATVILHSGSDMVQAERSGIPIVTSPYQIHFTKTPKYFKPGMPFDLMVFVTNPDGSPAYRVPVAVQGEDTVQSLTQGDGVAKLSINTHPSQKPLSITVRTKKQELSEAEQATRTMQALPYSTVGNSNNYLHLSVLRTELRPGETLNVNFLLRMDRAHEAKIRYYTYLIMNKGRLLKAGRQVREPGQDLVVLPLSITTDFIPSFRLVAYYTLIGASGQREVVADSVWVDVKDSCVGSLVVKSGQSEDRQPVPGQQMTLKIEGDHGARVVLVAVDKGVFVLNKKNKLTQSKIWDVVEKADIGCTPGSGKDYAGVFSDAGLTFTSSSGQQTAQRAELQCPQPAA

Which F1 cofactor (%) does the source give for “FH fragment "1NT7" (SCR 1 to 7 of human factor H) (from UniProt P08603 19-447)” here?
Its F1 cofactor (%) is 100%.

With “FH fragment "1NT18" (SCR 1 to 18 of human factor H) (from UniProt P08603 19-1102)” as the substance, how does the F1 cofactor (%) read?
Its F1 cofactor (%) is 100%.

Which F1 cofactor (%) does the source give for “FH fragment "7CT18" (SCR 7 to 18 of human factor H) (from UniProt P08603 389-1102)” here?
Its F1 cofactor (%) is 0%.

For “FH fragment "7CT20" (SCR 7 to 20 of human factor H) (from UniProt P08603 389-1231)”, which F1 cofactor (%) is on record?
Its F1 cofactor (%) is 0%.

“FH fragment "8CT20" (SCR 8 to 20 of human factor H) (from UniProt P08603 448-1231)” was tested. Which F1 cofactor (%) did it give?
The F1 cofactor (%) was 0%.

Which F1 cofactor (%) does the source give for “FH fragment "SCR1-4" (SCR 1 to 4 of human factor H)” here?
Its F1 cofactor (%) is 100%.

How did the F1 cofactor (%) turn out when “FH fragment "SCR1-6" (SCR 1 to 6 of human factor H) (from UniProt P08603 19-388)” was run?
The F1 cofactor (%) was 100%.

With “FH fragment "SCR6-8" (SCR 6 to 8 of human factor H)” as the substance, how does the F1 cofactor (%) read?
Its F1 cofactor (%) is 0%.
